Measurements reported in IntAct's records for PubMed 16000308.

B1: Melanoma-associated antigen D1 (Homo sapiens), Q9Y5V3 (parent)
chain: MAQKMDCGAGLLGFQAEASVEDSALLMQTLMEAIQISEAPPTNQATAAASPQSSQPPTANEMADIQVSAAAARPKSAFKVQNATTKGPNGVYDFSQAHNAKDVPNTQPKAAFKSQNATPKGPNAAYDFSQAATTGELAANKSEMAFKAQNATTKVGPNATYNFSQSLNANDLANSRPKTPFKAWNDTTKAPTADTQTQNVNQAKMATSQADIETDPGISEPDGATAQTSADGSQAQNLESRTIIRGKRTRKINNLNVEENSSGDQRRAPLAAGTWRSAPVPVTTQNPPGAPPNVLWQTPLAWQNPSGWQNQTARQTPPARQSPPARQTPPAWQNPVAWQNPVIWPNPVIWQNPVIWPNPIVWPGPVVWPNPLAWQNPPGWQTPPGWQTPPGWQGPPDWQGPPDWPLPPDWPLPPDWPLPTDWPLPPDWIPADWPIPPDWQNLRPSPNLRPSPNSRASQNPGAAQPRDVALLQERANKLVKYLMLKDYTKVPIKRSEMLRDIIREYTDVYPEIIERACFVLEKKFGIQLKEIDKEEHLYILISTPESLAGILGTTKDTPKLGLLLVILGVIFMNGNRASEAVLWEALRKMGLRPGVRHPLLGDLRKLLTYEFVKQKYLDYRRVPNSNPPEYEFLWGLRSYHETSKMKVLRFIAEVQKRDPRDWTAQFMEAADEALDALDAAAAEAEARAEARTRMGIGDEAVSGPWSWDDIEFELLTWDEEGDFGDPWSRIPFTFWARYHQNARSRFPQTFAGPIIGPGGTASANFAANFGAIGFFWVE
partner: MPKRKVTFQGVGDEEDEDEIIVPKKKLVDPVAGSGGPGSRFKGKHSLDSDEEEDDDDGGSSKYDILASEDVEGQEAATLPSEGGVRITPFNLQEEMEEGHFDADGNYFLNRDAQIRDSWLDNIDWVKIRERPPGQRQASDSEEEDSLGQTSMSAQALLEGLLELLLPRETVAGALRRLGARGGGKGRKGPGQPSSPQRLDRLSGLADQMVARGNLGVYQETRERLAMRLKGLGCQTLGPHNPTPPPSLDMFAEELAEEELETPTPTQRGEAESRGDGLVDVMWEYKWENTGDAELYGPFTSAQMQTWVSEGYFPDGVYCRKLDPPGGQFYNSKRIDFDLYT

Variants of: B1
Conditions: with cd2b2_human CD2BP2, O95400

Effect of a mutation on the interaction of substitutions, site by site:
W380: E disrupting interaction strength; A decreasing interaction strength; D decreasing interaction strength
T388: E decreasing interaction strength; D decreasing interaction strength; C decreasing interaction strength
P378: H decreasing interaction strength; M decreasing interaction strength; A decreasing interaction strength; E decreasing interaction strength; C decreasing interaction strength; D decreasing interaction strength; W decreasing interaction strength; G decreasing interaction strength
W386: T disrupting interaction strength; I decreasing interaction strength; N disrupting interaction strength; H disrupting interaction strength; D disrupting interaction strength; E disrupting interaction strength; A disrupting interaction strength; V disrupting interaction strength; K decreasing interaction strength; P decreasing interaction strength; C disrupting interaction strength; M decreasing interaction strength; G disrupting interaction strength; S decreasing interaction strength
G385: K disrupting interaction strength; D disrupting interaction strength; W disrupting interaction strength; M disrupting interaction strength; P decreasing interaction strength; R decreasing interaction strength; N disrupting interaction strength; Y disrupting interaction strength; Q disrupting interaction strength; C disrupting interaction strength; E disrupting interaction strength; F disrupting interaction strength; T disrupting interaction strength; L disrupting interaction strength; H disrupting interaction strength; A disrupting interaction strength; I disrupting interaction strength; S disrupting interaction strength
G379: A decreasing interaction strength; C decreasing interaction strength; E decreasing interaction strength; D decreasing interaction strength; W decreasing interaction strength
Q387: E disrupting interaction strength; Y disrupting interaction strength; C disrupting interaction strength; A decreasing interaction strength; W disrupting interaction strength; D disrupting interaction strength
P384: N disrupting interaction strength; D disrupting interaction strength; V disrupting interaction strength; F disrupting interaction strength; Y disrupting interaction strength; Q disrupting interaction strength; C disrupting interaction strength; L disrupting interaction strength; I disrupting interaction strength; H disrupting interaction strength; R disrupting interaction strength; M disrupting interaction strength; E disrupting interaction strength; T disrupting interaction strength; K disrupting interaction strength; W disrupting interaction strength; S disrupting interaction strength; G disrupting interaction strength; A disrupting interaction strength
Q381: D decreasing interaction strength; E decreasing interaction strength; C decreasing interaction strength; Y decreasing interaction strength
T382: D disrupting interaction strength; E disrupting interaction strength; L disrupting interaction strength; N decreasing interaction strength; C disrupting interaction strength; M decreasing interaction strength
P383: Q disrupting interaction strength; L disrupting interaction strength; N disrupting interaction strength; A disrupting interaction strength; S disrupting interaction strength; W disrupting interaction strength; D disrupting interaction strength; I disrupting interaction strength; Y disrupting interaction strength; M disrupting interaction strength; T disrupting interaction strength; R disrupting interaction strength; C disrupting interaction strength; H disrupting interaction strength; E disrupting interaction strength; F disrupting interaction strength; K disrupting interaction strength; G disrupting interaction strength; V disrupting interaction strength
